Reference: the supplement of paper PMC10567573

B1: RHOBTB3 (parent)
chain: GGADIIVIKYNVNDKFSFHEVKDN
B2: INTS4 (parent)
chain: AKQIMEETYKMEFMYSGVENKQVV

Variants of: B1
Test: protein stability index of a GFP-peptide fusion (GPS, HEK-293T) (PSI 1-6); higher = more stable
Details: c terminus: a fixed tail appended
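Note: lentivirally expressed fusions sorted by FACS into six bins by GFP to DsRed ratio, PSI derived from sequencing read proportions per bin multiplied by bin number.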

Protein stability index, by site and new letter:
I8: F 1.44 | W 2.04 | Q 3.48 | L 1.47 | S 3.71 | A 1.78 | E 4.25 | M 1.89 | H 3.35 | G 2.92 | D 3.81 | V 1.81 | Y 1.59 | K 3.96 | R 3.17 | P 1.32 | N 4.41 | T 2.95 | C 2.22
I5: S 3.31 | H 2.39 | W 2.59 | C 1.74 | V 1.43 | G 2.82 | M 2.68 | P 3.58 | D 4.15 | T 2.47 | K 2.67 | R 2.34 | E 3.59 | A 1.81 | Y 1.78 | L 3.18 | N 3.69 | F 1.78 | Q 3.45
V7: D 4.15 | W 1.52 | H 2.28 | G 2.5 | I 2.46 | L 2.3 | R 1.67 | E 3.28 | F 3.21 | S 2.17 | C 1.79 | M 2.06 | Q 2.31 | K 2.33 | Y 2.29 | T 1.6 | A 2.17 | N 2.85 | P 4.13
K9: W 3.44 | A 1.67 | Y 2.89 | R 2.33 | D 1.66 | C 2.65 | L 2.84 | T 2.97 | M 3.15 | G 3.78 | H 3.31 | I 4.01 | F 3.82 | P 2.07
G2: M 3.43 | Q 1.86 | E 1.98 | D 2.31 | F 3.68 | R 2.76 | A 1.69 | C 1.97 | K 2.86 | L 1.71 | P 1.52 | Y 2.69 | I 1.52 | T 2.38 | S 1.62 | V 1.64 | H 3.5
D4: F 1.97 | T 3.79 | L 1.8 | A 2.91 | S 2.66 | R 4.21 | C 2.96 | G 3.68 | H 2.21 | V 3.66 | N 2.47 | I 3.04 | W 2.41 | E 4.16 | P 3.07 | K 4.09 | M 3.48
G1: N 2.96 | S 3.49 | V 2.1 | C 2.27 | Q 2.37 | W 1.54 | L 2.44 | T 2.99 | A 2.07 | M 1.97 | F 2.69 | E 2.13 | H 2.3 | I 2.53 | P 2.18 | R 3.04 | D 2.67 | Y 2.04 | K 2.99
A3: M 2.03 | Q 2.73 | T 2.21 | W 2.05 | E 1.74 | D 2.85 | H 3.04 | Y 2.96 | L 2.64 | I 3.1 | P 2.35 | K 2.65 | F 3.37 | S 1.74
I6: S 3.63 | N 3.83 | Y 2.23 | W 1.79 | C 1.67 | K 3 | D 4.07 | A 3.21 | P 4.12 | G 4.03 | H 2.92 | Q 3.98 | T 2.45 | M 1.92 | F 1.5 | V 1.77 | R 3.1 | L 3.33 | E 3.74

Variants of: B2
Test: as above
Details: c terminus: a fixed tail appended

Protein stability index: each site, then its substitutions
K2: S 2.44 | W 3.22
I4: R 2.07 | P 3.39
E19: A 2.52
Q22: W 1.02
M5: L 4.9
N20: T 1.36
K10: V 2.64
E6: C 1.73
